From publication PMC8395514, “Characterization of Class V DyP-Type Peroxidase SaDyP1 from Streptomyces avermitilis and Evaluation of SaDyPs Expression in Mycelium” (International Journal of Molecular Sciences, 2021)

T1: SaDyP1 (Streptomyces avermitilis, UniProt Q82QF8)
T1 construct: gene SAVERM_549
T1 sequence (Q82QF8 1-442): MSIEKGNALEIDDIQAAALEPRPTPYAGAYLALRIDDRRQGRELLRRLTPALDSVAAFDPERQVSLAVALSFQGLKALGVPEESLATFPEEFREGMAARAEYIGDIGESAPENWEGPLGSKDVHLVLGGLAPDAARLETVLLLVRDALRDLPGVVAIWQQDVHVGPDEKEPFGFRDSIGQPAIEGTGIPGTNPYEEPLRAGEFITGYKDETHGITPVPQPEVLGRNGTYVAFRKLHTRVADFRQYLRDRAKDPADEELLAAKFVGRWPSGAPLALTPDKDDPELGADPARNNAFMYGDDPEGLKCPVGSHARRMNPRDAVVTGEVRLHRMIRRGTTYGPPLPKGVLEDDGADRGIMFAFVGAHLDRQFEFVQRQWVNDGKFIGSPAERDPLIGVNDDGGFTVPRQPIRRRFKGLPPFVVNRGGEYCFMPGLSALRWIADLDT

B1: SaDyP1 (Streptomyces avermitilis MA-4680 = NBRC 14893) (protein)
chain: MSIEKGNALEIDDIQAAALEPRPTPYAGAYLALRIDDRRQGRELLRRLTPALDSVAAFDPERQVSLAVALSFQGLKALGVPEESLATFPEEFREGMAARAEYIGDIGESAPENWEGPLGSKDVHLVLGGLAPDAARLETVLLLVRDALRDLPGVVAIWQQDVHVGPDEKEPFGFRDSIGQPAIEGTGIPGTNPYEEPLRAGEFITGYKDETHGITPVPQPEVLGRNGTYVAFRKLHTRVADFRQYLRDRAKDPADEELLAAKFVGRWPSGAPLALTPDKDDPELGADPARNNAFMYGDDPEGLKCPVGSHARRMNPRDAVVTGEVRLHRMIRRGTTYGPPLPKGVLEDDGADRGIMFAFVGAHLDRQFEFVQRQWVNDGKFIGSPAERDPLIGVNDDGGFTVPRQPIRRRFKGLPPFVVNRGGEYCFMPGLSALRWIADLDT

Key:
SaDyP1 = biological target: T1, SaDyP1; assay: initial-rate peroxidase assay, absorbance […] nm, Haldane fit; type: biochemical; settings: 0.20 mM H2O2, 25 mM citrate, pH 4.0 in Table 3 and methods (pH 4.5 in Figure 5 legend), substrate inhibition model; substrate inhibition constant (Haldane)
purified protein [1] = substrate: CCn1c(=NN=c2sc3cc(S(=O)(=O)O)ccc3n2CC)sc2cc(S(=O)(=O)O)ccc21; assay: purified protein; type: biochemical, Streptomyces avermitilis; settings: 0.20 mM H2O2, 25 mM citrate, pH 4.0 in Table 3 and methods (pH 4.5 in Figure 5 legend), substrate inhibition model
purified protein [2] = substrate: COc1cccc(OC)c1O; assay: purified protein; type: biochemical, Streptomyces avermitilis; settings: 0.20 mM H2O2, 25 mM citrate, pH 4.0

Row | Molecule | Ki (SaDyP1) | Km (purified protein [1]) | kcat (purified protein [1]) | kcat/Km (purified protein [1]) | Km (purified protein [2]) | kcat (purified protein [2]) | kcat/Km (purified protein [2])
1 | CCn1c(=NN=c2sc3cc(S(=O)(=O)O)ccc3n2CC)sc2cc(S(=O)(=O)O)ccc21 [ABTS, 2,2′-azinobis [3-ethylbenzothiazoline-6-sulfonic acid]] | 13 mM |  |  |  |  |  | 
2 | B1 |  | 1.2 mM | 2.8 s⁻¹ | 2400 M⁻¹ s⁻¹ | 0.61 mM | 0.23 s⁻¹ | 380 M⁻¹ s⁻¹
